From US20240336672A1 (INSTITUT PASTEUR, published 2024)

B1: COV2-2196 (parental IgG1 version) (antibody, V domains shown)
VH: QMQLVQSGPEVKKPGTSVKVSCKASGFTFMSSAVQWVRQARGQRLEWIGWIVIGSGNTNYAQKFQERVTITRDMSTSTAYMELSSLRSEDTAVYYCAAPYCSSISCNDGFDIWGQGTMVTVSS
VL: not shown
B2: Cv2.5179 (recombinant human IgG1) (antibody, V domains shown)
VH: QVQLVQSGPEVKKPGTSVKVSCKASGFTFTSSAVQWVRQARGQRLEWIGWIVVGSGNTNYAQKFQERVTITRDMSTSTAYMELSSLRSEDTAVYYCAAPHCSSTSCYDAFDIWGQGTMVTVSS
VL: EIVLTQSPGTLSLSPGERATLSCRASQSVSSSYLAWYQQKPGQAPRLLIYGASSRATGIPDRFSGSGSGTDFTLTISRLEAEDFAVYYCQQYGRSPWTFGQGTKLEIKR
notes: also called Cv2.5179 IgG
B3: TIX (antibody, V domains shown)
VH: QMQLVQSGPEVKKPGTSVKVSCKASGFTFMSSAVQWVRQARGQRLEWIGWIVIGSGNTNYAQKFQERVTITRDMSTSTAYMELSSLRSEDTAVYYCAAPYCSSISCNDGFDIWGQGTMVTVSS
VL: not shown
notes: also called Tixagevimab
B4: Cv2.1169 (recombinant human IgG1) (antibody)
heavy: QVQLVQSGPEVKKPGTSVKVSCKASGFTFTTSAVQWVRQARGQRLEWIGWIVVGSGNTNYAQKFQERVTITRDMSTTTAYMELSSLRSEDTAVYYCAAPYCSGGTCLDGFDIWGQGTMVTVSSASTKGPSVFPLAPSSKSTSGGTAALGCLVKDYFPEPVTVSWNSGALTSGVHTFPAVLQSSGLYSLSSVVTVPSSSLGTQTYICNVNHKPSNTKVDKKVEPKSCDKTHTCPPCPAPELLGGPSVFLFPPKPKDTLMISRTPEVTCVVVDVSHEDPEVKFNWYVDGVEVHNAKTKPREEQYNSTYRVVSVLTVLHQDWLNGKEYKCKVSNKALPAPIEKTISKAKQPREPQVYTLPPSRDELTKNQVSLTCLVKGFYPSDIAVEWESNGQPENNYKTTPPVLDSDGSFFLYSKLTVDKSRWQQGNVFSCSVMHEALHNHYTQKSLSLSPGK
light: not shown
notes: also called Cv2.1169 IgG
B5: ADG-2 (antibody, V domains shown)
VH: EVQLVESGGGLVKPGGSLRLSCAASGFTFSSYYMNWVRQAPGKGLEWVSSISEDGYSTYYPDSLKGRFTISRDSAKNSLYLQMNSLRADDTAVYYCARDFSGHTAWAGTGFEYWGQGTLVTVSS
VL: QSVLTQPPSVSGAPGQRITISCTGSSSNIGAGYDVHWYQQLPGTAPKLLIYGSSSRNSGVPDRFSGSKSGTSASLAITGLQAEDEADYYCQSYDSSLSVLYTFGTGTKVTVL
B6: Adintrevimab (antibody, V domains shown)
VH: EVQLVESGGGLVKPGGSLRLSCAASGFTFSSYYMNWVRQAPGKGLEWVSSISEDGYSTYYPDSLKGRFTISRDSAKNSLYLQMNSLRADDTAVYYCARDFSGHTAWAGTGFEYWGQGTLVTVSS
VL: QSVLTQPPSVSGAPGQRITISCTGSSSNIGAGYDVHWYQQLPGTAPKLLIYGSSSRNSGVPDRFSGSKSGTSASLAITGLQAEDEADYYCQSYDSSLSVLYTFGTGTKVTVL
B7: Cv2.1353 (recombinant human IgG1) (antibody, V domains shown)
VH: EVQLVESGGGLVQPGGSLRLSCAASGVTVSSNYMNWVRQAPGKGLEWVSVIYSGGSTFYADSVKGRFIISRDNSKNTLYLQMNSLKTEDTAVYYCARDLGPMGFDIWGQGTMVTVSS
VL: DIQMTQSPSFLSASVGDRVTITCRASQGISSYLAWYQQKPGKAPKLLIYAASTLQSGVPSRFSGSGSGTEFTLTISSLQPEDFATYYCQQLNSDPPVTFGPGTKVDIKR
B8: Cv2.3235 (recombinant human IgG1) (antibody, V domains shown)
VH: EVQLVESGGGLIQPGGSLRLSCAASGFTVSRNYMSWVRQAPGKGLEWVSVIYSGGSTFYADSVKGRFTISRDNSKNTLYLQMNSLRAEDTAVYYCARDGDYYGMDVWGQGTTVTVSS
VL: DIQMTQSPSFLSASVGDRVTITCRASQGISSFLAWYQQKPGKAPKLLIYGASTLQSGVTSRFSGSGSGTEFTLTISSLQPEDFATYYCQRLDSYPPITFGQGTRLEIKR
B9: Cv2.3194 (recombinant human IgG1) (antibody, V domains shown)
VH: EVQLVESGGGLIQPGGSLRLSCAASGITVTSNYMSWVRQAPGKGLEWVSVIYPGGSTFYADSVKGRFTISRDNSKNTLYLQMNSLRAEDTAVYYCARDLVVYGMDVWGQGTTVTVSS
VL: EIVLTQSPGTLSLSPGERATLSCRASQSVSSSYLAWYQQKPGQAPRLLIYGASSRATGIPGRFSGSGSGTDFTLTISRLEPEDFAIYYCQQGVTFGGGTKVEIKR
B10: Cv2.5213 (recombinant human IgG1) (antibody, V domains shown)
VH: EVQLVESGGGLIQPGGSLRLSCAASGFTVSSNYMSWVRQAPGKGLEWVSLIYSGGSTYYADSVKGRFTISRDNSKNTLYLQMNSLRAEDTAVYYCARDLNYYGMDVWGQGATVTVSS
VL: DIQMTQSPSSLSASVGDRVTITCRASQGISSYLAWYQQKPGKAPKLLIYAASTLQSGVPSRFSGSGSGTDFTLTISSLQPEDFATYYCQQLDSYSPFTFGPGTKVDIKR

Assays:
[1] = molecular target: T1, SARS-CoV-2 S1 domain, Wuhan (SARS-CoV-2, UniProt P0DTC2 16-681); assay: ELISA; set-up: unit not given beside the values
[2] = molecular target: SARS-CoV-2 RBD domain, Wuhan (SARS-CoV-2); assay: ELISA; set-up: unit not given beside the values
[3] = molecular target: SARS-CoV-2 RBD domain, Wuhan (SARS-CoV-2); assay: RBD-ACE2 competition ELISA; set-up: unit not given beside the values
[4] = molecular target: SARS-CoV-2 RBD domain, Wuhan (SARS-CoV-2); assay: RBD-ACE2 competition ELISA
[5] = molecular target: T1, SARS-CoV-2 S1 domain, Wuhan; assay: ELISA
[6] = molecular target: T1, SARS-CoV-2 S1 domain, Wuhan; assay: ELISA, coated antigen; further: test concentration or dose not given here
[7] = molecular target: T2, SARS-CoV-2 spike, Wuhan strain, on virus or pseudotyped particles (SARS-CoV-2, UniProt P0DTC2 14-1273); assay: cell-based or functional assay
[8] = molecular target: T2, SARS-CoV-2 spike, Wuhan strain, on …; assay: cell-based or functional assay; remark: listed apart in the source
[9] = molecular target: T1, SARS-CoV-2 S1 domain, Wuhan; assay: SPR (Biacore), IgG immobilized, viral protein as analyte
[10] = molecular target: T1, SARS-CoV-2 S1 domain, Wuhan; assay: SPR (Biacore), antibody coupled to CM5 chip, viral protein as analyte
[11] = molecular target: T1, SARS-CoV-2 S1 domain, Wuhan; assay: SPR (Biacore), antibody immobilised
Wherever OD405nm is given: test concentration or dose not given here.
Wherever PseudoNEUT (%) is given: test concentration or dose not given here.
Wherever S-FuseNEUT (%) is given: test concentration or dose not given here.

| Binder | OD405nm [5] | ELISA OD [6] | PseudoNEUT (%) [7] | S-FuseNEUT (%) [7] | Kd [11] | other results |
| --- | --- | --- | --- | --- | --- | --- |
| B1 | – | – | – | – | – | AUC [1]: 3 |
| B2 | – | – | – | – | – | AUC (Binding) [2]: 11; AUC (Blocking) [3]: 103; IC50 (read off the curve) [4]: ~600 ng/mL |
| B3 | 3.3 | – | – | – | – | – |
| B4 | 3.3 | 3.5 OD | 100% | 95% | – | Pseudoneutralization IC50 [8]: 3 ng/mL; Pseudoneutralization IC90 [8]: 12.4 ng/mL; S-Fuse neutralization IC50 [8]: 1.5 ng/mL; S-Fuse neutralization IC90 [8]: 3.5 ng/mL; Kd [9]: 1.44 nM; koff [9]: 0.000354 s⁻¹; kon [9]: 246000 M⁻¹ s⁻¹; Kd [10]: < 0.001 nM |
| B5 | – | – | – | – | – | AUC [1]: 3 |
| B6 | 3.3 | – | – | – | – | – |
| B7 | – | 3.5 OD | 100% | 100% | 6 nM | – |
| B8 | – | 3.9 OD | 100% | 100% | 18.9 nM | – |
| B9 | 3.4 | 3.7 OD | 100% | 100% | – | Pseudoneutralization IC50 [8]: 18.9 ng/mL; Pseudoneutralization IC90 [8]: 241 ng/mL; S-Fuse neutralization IC50 [8]: 3 ng/mL; S-Fuse neutralization IC90 [8]: 9.8 ng/mL; Kd [9]: 1.2 nM; Kd [10]: < 0.001 nM |
| B10 | – | 3.5 OD | 100% | 96% | 520 nM | – |
